Experimental data taken from PMC5443158.

Test system: CodY (Streptococcus pneumoniae D39)
Assay: EMSA
Settings: lowest CodY concentration giving binding, 10 nM DNA, 5X binding buffer: 20 mM Tris-HCl pH 7.5, 30 mM KCl, 1 mM DTT, 1 mM EDTA, 10% glycerol, room temperature, 30 min (Fig 4A,B) or 20 min (Fig 4C), 20 ul, 8% …

tpxD promoter probe (FAM)
binding (2 mM H2O2): 400 nM
binding (no H2O2, no BCAA): 600 nM
